B1: TP53_Y220C2 mimic peptide VLPCEPPEV (peptide)
peptide: VLPCEPPEV
notes: also called M231
B2: TP53_Y220C3 mimic peptide VMPCEPPEV (peptide)
peptide: VMPCEPPEV
notes: also called M232
B3: PTEN R173C2 mimic peptide CYLYYYSYLL (peptide)
peptide: CYLYYYSYLL
notes: also called M101
B4: CTNNB1_S33C5 mimic peptide YLDCGIHSV (peptide)
peptide: YLDCGIHSV
notes: also called M022
B5: TP53.K132N mutant peptide ALNNMFCQL (peptide)
peptide: ALNNMFCQL
notes: also called M160
B6: KRAS_G12A2 mimic peptide LLVVGAAGV (peptide)
peptide: LLVVGAAGV
notes: also called M051
B7: TP53_R110L4 mimic peptide YQGSYGFLV (peptide)
peptide: YQGSYGFLV
notes: also called M202
B8: SOX17_S403I2 mimic peptide VLSDAISAV (peptide)
peptide: VLSDAISAV
notes: also called M121; SOX17_S40312
B9: TP53_C141Y2 mimic peptide KLYPVQLWV (peptide)
peptide: KLYPVQLWV
notes: also called M131
B10: TP53.R110L mutant peptide YQGSYGFLL (peptide)
peptide: YQGSYGFLL
notes: also called M200
B11: TP53_R110L3 mimic peptide YQGSYGFLI (peptide)
peptide: YQGSYGFLI
notes: also called M201
B12: TP53.S127F mutant peptide SVTCTYFPA (peptide)
peptide: SVTCTYFPA
notes: also called M210
B13: TP53_C141Y8 mimic peptide KMYPVQLWL (peptide)
peptide: KMYPVQLWL
notes: also called M133
B14: ERBB2.V842I mutant peptide RLIHRDLAA (peptide)
peptide: RLIHRDLAA
notes: also called M240
B15: CTNNB1_S37F6 mimic peptide YMDSGIHFV (peptide)
peptide: YMDSGIHFV
notes: also called M033
B16: CTNNB1.S37F mutant peptide YLDSGIHFG (peptide)
peptide: YLDSGIHFG
notes: also called M030
B17: TP53.V272M mutant peptide LLGRNSFEM (peptide)
peptide: LLGRNSFEM
notes: also called M220
B18: TP53.Y220C mutant peptide VVPCEPPEV (peptide)
peptide: VVPCEPPEV
notes: also called M230
B19: PTEN.R173C mutant peptide CYVYYYSYLL (peptide)
peptide: CYVYYYSYLL
notes: also called M100
B20: CTNNB1.S33C mutant peptide YLDCGIHSG (peptide)
peptide: YLDCGIHSG
notes: also called M020
B21: TP53_K132N5 mimic peptide ALNNMFCQV (peptide)
peptide: ALNNMFCQV
notes: also called M161
B22: SF3B1_R625H9 mimic peptide NMDEYVHNL (peptide)
peptide: NMDEYVHNL
notes: also called M113
B23: TP53.P152L mutant peptide QLWVDSTPL (peptide)
peptide: QLWVDSTPL
notes: also called M180
B24: PIK3CA.E453K mutant peptide GLKDLLNPI (peptide)
peptide: GLKDLLNPI
notes: also called M080
B25: KRAS_G12C3 mimic peptide LMVVGACGV (peptide)
peptide: LMVVGACGV
notes: also called M062
B26: TP53_S127F7 mimic peptide SMTCTYFPV (peptide)
peptide: SMTCTYFPV
notes: also called M213
B27: TP53_S127F12 mimic peptide SMTCTYFPI (peptide)
peptide: SMTCTYFPI
notes: also called M215
B28: TP53.C141Y mutant peptide KTYPVQLWV (peptide)
peptide: KTYPVQLWV
notes: also called M130
B29: PIK3CA.G118D mutant peptide ILNREIDFA (peptide)
peptide: ILNREIDFA
notes: also called M090

molecular target: T1, HLA-A*02:01 class I complex (conditional p*HLA*02:01, biotinylated heavy chain with beta2-microglobulin) (human, biotinylated heavy chain); experiment: UV peptide exchange, HLA class I ELISA; low end of the group, member by Table 4
T1 construct: UV-labile peptide p* is cleaved and exchanged for the test peptide; also called HLA 2.1
Excerpt: (§1) The HLA class I ELISA is an enzyme immunoassay based on the detection of beta2-microglobulin (B2M) of (peptide-stabilized) HLA class I complexes. To this end streptavidin is bound onto polystyrene microtiter wells. After washing and blocking, HLA complex present in exchange reaction mixtures or ELISA controls is captured by the streptavidin on the microtiter plate via its biotinylated heavy chain. Non-bound material is removed by washing. Subsequently, horseradish peroxidase (HRP)-conjugated antibody to human B2M is added. […] In the latter case B2M is removed during the washing step. After removal of non-bound HRP conjugate by washing, a substrate solution is added to the wells. A colored product is formed in proportion to the amount of intact HLA complex present in the samples. After the reaction has been terminated by the addition of a stop solution, absorbance is measured in a microtiter plate reader. The absorbance is normalized to the absorbance of an exchange control peptide (represents 100%). Also, suboptimal HLA binding of peptides with a moderate to low affinity for HLA class I molecules can be detected by this ELISA technique
(§2) Coating wells of two NUNC MaxiSorp™ 96-well ELISA plates: only the contents of one coating buffer capsule were dissolved in 100 mL of distilled water (0.05 M carbonate-bicarbonate buffer, pH 9.6 at 25° C.). 46 μL of Streptavidin stock solution were added to 23 mL coating buffer. 100 μL of the Streptavidin stock solution were added to all wells. Each microtiter plate was covered with an adhesive seal and incubated overnight at room temperature (18-25° C.).

Compared with B1, B2 is lower in “average relative binding (%)” value: 70 to 79% for the first, 61 to 69% for the second.

Compared with B3, B4 is higher in “average relative binding (%)” value: 18 to 28% for the first, 102 to 113% for the second.

Compared with B5, B6 is lower in “average relative binding (%)” value: 41 to 49% for the first, 33 to 38% for the second.

First: B7
Second: B8
The “average relative binding (%)” value of the first is lower: 50 to 58% for the first, 90 to 100% for the second.

B9 was tested, and the “average relative binding (%)” value was 80 to 88%.

molecular target: T1, HLA-A*02:01 class I complex …; experiment: UV peptide exchange, HLA class I ELISA, % of Pos peptide;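 on Average %: Streptavidin-captured HLA complexes after exchange detected via HRP anti-human B2M antibody, absorbance read, colour scales with intact complex, normalized to exchange control peptide as 100%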;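 on Exch I (%): Streptavidin-captured HLA complexes after exchange detected via HRP anti-human B2M antibody, absorbance read, colour scales with intact complex, normalized to exchange control peptide as 100%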;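 on Exch II (%): Streptavidin-captured HLA complexes after exchange detected via HRP anti-human B2M antibody, absorbance read, colour scales with intact complex, normalized to exchange control peptide as 100%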
Excerpt: as §1, §2

Compared with B4, B10 is lower in “average relative binding (%)” value: greater than 100% for the first, less than 15% for the second.

B11 and B12 cannot be ordered by “average relative binding (%)” value: less than 15% for the first, less than 15% for the second.

Compared with B13, B14 is lower in “average relative binding (%)” value: greater than 100% for the first, less than 15% for the second.

molecular target: T1, HLA-A*02:01 class I complex …; experiment: as above; remark: another data set of the same source

Going from B15 to B16, the Average % falls from 99.8% to 53.4%.

Compared with B17, B18 is lower in Average %: 50.9% for the first, 33.5% for the second.

First: B1
Second: B2
The Average % of the first is higher: 70% for the first, 60.9% for the second.

Compared with B3, B19 is higher in Average %: 18.3% for the first, 38.4% for the second.

Going from B20 to B4, the Average % rises from 33.9% to 102%.

First: B21
Second: B5
The Average % of the first is higher: 69.3% for the first, 41.3% for the second.

Compared with B22, B23 is higher in Average %: 58.1% for the first, 86.2% for the second.

Going from B24 to B6, the Average % falls from 79.4% to 33.3%.

Going from B25 to B10, the Average % falls from 48.7% to 11.9%.

Compared with B7, B11 is lower in Average %: 49.6% for the first, 8.9% for the second.

Going from B26 to B27, the Average % falls from 88.4% to 27.5%.

Going from B12 to B8, the Average % rises from 8.6% to 90.1%.

Compared with B9, B28 is lower in Average %: 81.9% for the first, 68.9% for the second.

First: B13
Second: B14
The Average % of the first is higher: 112% for the first, 7.2% for the second.

B29 was tested, and the Average % was 50.4%.

First: B15
Second: B16
The “Exch I (%)” value of the first is higher: 104% for the first, 53.7% for the second.

Going from B17 to B18, the “Exch I (%)” value falls from 58.8% to 29.4%.

First: B1
Second: B2
The “Exch I (%)” value of the first is higher: 66.3% for the first, 62.9% for the second.

Going from B3 to B19, the “Exch I (%)” value rises from 16.1% to 38.2%.

Going from B20 to B4, the “Exch I (%)” value rises from 34.8% to 100%.

Compared with B21, B5 is lower in “Exch I (%)” value: 69.7% for the first, 39.6% for the second.

First: B22
Second: B23
The “Exch I (%)” value of the first is lower: 62% for the first, 84.3% for the second.

Going from B24 to B6, the “Exch I (%)” value falls from 73.8% to 34.1%.

Going from B25 to B10, the “Exch I (%)” value falls from 47.1% to 14.3%.

Going from B7 to B11, the “Exch I (%)” value falls from 53.6% to 7.1%.

Going from B26 to B27, the “Exch I (%)” value falls from 83.4% to 32.2%.

Going from B12 to B8, the “Exch I (%)” value rises from 7.7% to 89.3%.

Compared with B9, B28 is lower in “Exch I (%)” value: 84.1% for the first, 66.6% for the second.

Compared with B13, B14 is lower in “Exch I (%)” value: 122% for the first, 6.8% for the second.

B29 was tested, and the “Exch I (%)” value was 53.1%.

Going from B15 to B16, the “Exch II (%)” value falls from 95.5% to 53.2%.

Going from B17 to B18, the “Exch II (%)” value falls from 42.9% to 37.5%.

Going from B1 to B2, the “Exch II (%)” value falls from 73.7% to 58.9%.

Compared with B3, B19 is higher in “Exch II (%)” value: 20.6% for the first, 38.5% for the second.

Compared with B20, B4 is higher in “Exch II (%)” value: 33% for the first, 104% for the second.

Compared with B21, B5 is lower in “Exch II (%)” value: 68.8% for the first, 43.1% for the second.

Going from B22 to B23, the “Exch II (%)” value rises from 54.3% to 88.1%.

First: B24
Second: B6
The “Exch II (%)” value of the first is higher: 84.9% for the first, 32.5% for the second.

First: B25
Second: B10
The “Exch II (%)” value of the first is higher: 50.4% for the first, 9.6% for the second.

First: B7
Second: B11
The “Exch II (%)” value of the first is higher: 45.6% for the first, 10.8% for the second.

First: B26
Second: B27
The “Exch II (%)” value of the first is higher: 93.3% for the first, 22.7% for the second.

First: B12
Second: B8
The “Exch II (%)” value of the first is lower: 9.4% for the first, 90.9% for the second.

Compared with B9, B28 is lower in “Exch II (%)” value: 79.8% for the first, 71.2% for the second.

Compared with B13, B14 is lower in “Exch II (%)” value: 103% for the first, 7.7% for the second.

B29 was tested, and the “Exch II (%)” value was 47.8%.

molecular target: T1, HLA-A*02:01 class I complex …; experiment: as above; remark: another data set of the same source

Compared with B16, B17 is lower in “Mutant Binding” value: 53.7% for the first, 50.9% for the second.

First: B18
Second: B20
The “Mutant Binding” value of the first is lower: 33.5% for the first, 34.8% for the second.

First: B5
Second: B23
The “Mutant Binding” value of the first is lower: 41.3% for the first, 86.2% for the second.

Compared with B28, B29 is lower in “Mutant Binding” value: 68.9% for the first, 50.4% for the second.

molecular target: T1, HLA-A*02:01 class I complex …; experiment: UV peptide exchange, HLA class I ELISA; high end of the group, member by Table 4
Excerpt: as §1, §2

First: B15
Second: B19
The “average relative binding (%)” value of the first is higher: 90 to 100% for the first, 33 to 38% for the second.

First: B21
Second: B22
The “average relative binding (%)” value of the first is higher: 61 to 69% for the first, 50 to 58% for the second.

First: B24
Second: B25
The “average relative binding (%)” value of the first is higher: 70 to 79% for the first, 41 to 49% for the second.

Compared with B26, B27 is lower in “average relative binding (%)” value: 80 to 88% for the first, 18 to 28% for the second.

With B13 the “average relative binding (%)” value was 102 to 113%.

From patent US20220194999A1 (Janssen / Centocor, published 2022)
